This note sets out measurements from PMC11428563.

The data set concerns the target VEGF as named in the paper; reagent listed as Human VEGFR2 / KDR Protein, His Tag, Acrobiosystems KDR-H5227 (human) (UniProt P35968). Nature of the data set: BLI. Conditions: BLI (Octet R4, anti-penta-His HIS1K sensors): protein loaded in phosphate buffer pH 7.4 (PlGF 2.5 ug/mL, VEGF 10 ug/mL), aptamers 0-20 uM in 1X Sartorius …. For orientation: Biolayer interferometry detects binding as a change in optical thickness at a sensor tip.

VEGF as named in the paper; reagent listed as Human VEGFR2 / KDR Protein, His Tag, Acrobiosystems KDR-H5227 (human), sequence (P35968 20-764): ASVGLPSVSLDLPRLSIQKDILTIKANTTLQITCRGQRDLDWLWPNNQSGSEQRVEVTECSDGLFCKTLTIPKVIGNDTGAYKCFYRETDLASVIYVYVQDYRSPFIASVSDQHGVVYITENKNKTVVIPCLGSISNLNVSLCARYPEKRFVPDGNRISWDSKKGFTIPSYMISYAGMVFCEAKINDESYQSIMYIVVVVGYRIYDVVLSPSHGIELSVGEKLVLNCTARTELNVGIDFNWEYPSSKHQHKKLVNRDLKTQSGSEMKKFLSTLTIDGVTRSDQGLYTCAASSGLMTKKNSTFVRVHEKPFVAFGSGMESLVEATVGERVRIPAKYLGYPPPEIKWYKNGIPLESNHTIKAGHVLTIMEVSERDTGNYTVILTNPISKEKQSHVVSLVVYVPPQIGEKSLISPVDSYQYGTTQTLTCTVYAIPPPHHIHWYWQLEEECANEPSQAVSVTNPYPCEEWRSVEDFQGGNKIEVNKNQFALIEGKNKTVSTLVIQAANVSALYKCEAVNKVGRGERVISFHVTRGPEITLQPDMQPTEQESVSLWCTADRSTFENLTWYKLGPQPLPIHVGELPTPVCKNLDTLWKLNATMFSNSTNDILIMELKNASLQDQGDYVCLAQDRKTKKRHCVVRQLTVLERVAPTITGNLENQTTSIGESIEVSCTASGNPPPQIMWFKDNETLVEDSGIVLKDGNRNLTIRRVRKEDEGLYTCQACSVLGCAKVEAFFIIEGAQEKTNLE

The term Kd denotes the equilibrium constant for the complex coming apart. A lower Kd goes with a tighter complex. In turn, GAAAGGCGA [VEGF-Apt3] registered an equilibrium dissociation constant (Kd) (kon 9.164e1 1/Ms, koff 4.362e-7 1/s) of 6.8 nM. Take CGAAGGGAA [VEGF-Apt1]: the Kd came out at 320000 nM. Same read-out and setting: with CGAAAACAC [VEGF-Apt2] the figure was 0.467 nM.
